Assay results from patent US20130203167A1 (SYRACUSE UNIVERSITY, published 2013).

B1: Win motif peptide INPTGCARSEPKIL (SEQ ID NO. 29) (peptide)
peptide: Ac-INPTGCARSEPKIL-NH2
B2: Win motif peptide VNPTGCARSEPKMS (SEQ ID NO. 30) (peptide)
peptide: Ac-VNPTGCARSEPKMS-NH2
B3: Win motif peptide LNPHGAARAEVYLR (SEQ ID NO. 31) (peptide)
peptide: Ac-LNPHGAARAEVYLR-NH2
B4: Win motif peptide EHQTGSARSEGYYP (SEQ ID NO. 32) (peptide)
peptide: Ac-EHQTGSARSEGYYP-NH2
B5: Win motif peptide EHVTGCARSEGFYT (SEQ ID NO. 33) (peptide)
peptide: Ac-EHVTGCARSEGFYT-NH2

target: full-length WDR5 (UniProt P61964 2-334); test: method not stated; ITC with full-length WDR5 by the Methods

| Binder | Kd [nM] |
| --- | --- |
| B1 | 78 |
| B2 | 47 |
| B3 | 52 |
| B4 | 415 |
| B5 | 116 |
